From patent US20110158985A1 (published 2011) come the findings set out here.

Changes are numbered by the printed parent chain. Numbers in names are those of the source. Where “and” joins values, the source holds several entries; their conditions need not be identical. Equal values may be shown once. Read-outs that look alike come from different tables or passages of the source.

Assay [1] addresses T1, F protein of RSV (Long strain) (RSV (Long strain), UniProt P12568 26-574). Briefly: cell-based or functional assay.
The target of assay [2] is T1, F protein of RSV (Long strain). The assay is described as follows: cell-based or functional assay. This is another data set of the same source.
For assay [3], the target named is T2, RSV F glycoprotein (NUF4) (respiratory syncytial virus).
T2 chain 1: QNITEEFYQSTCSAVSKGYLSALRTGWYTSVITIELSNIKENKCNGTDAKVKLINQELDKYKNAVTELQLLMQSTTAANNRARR
T2 chain 2: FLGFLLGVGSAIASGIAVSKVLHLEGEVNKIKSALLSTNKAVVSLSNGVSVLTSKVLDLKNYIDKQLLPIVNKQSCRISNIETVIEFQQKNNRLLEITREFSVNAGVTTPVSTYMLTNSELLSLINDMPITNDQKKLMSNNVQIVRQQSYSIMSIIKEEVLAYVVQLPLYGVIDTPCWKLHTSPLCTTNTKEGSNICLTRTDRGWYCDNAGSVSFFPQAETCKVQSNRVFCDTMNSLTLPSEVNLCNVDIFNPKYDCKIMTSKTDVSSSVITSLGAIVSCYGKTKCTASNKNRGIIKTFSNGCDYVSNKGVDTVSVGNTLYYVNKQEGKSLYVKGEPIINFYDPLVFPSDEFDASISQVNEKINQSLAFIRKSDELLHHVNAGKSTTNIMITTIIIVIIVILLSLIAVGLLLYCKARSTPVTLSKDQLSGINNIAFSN
Briefly: SPR (BIAcore), mAb vs NUF4 (1:1).

Assay [4] concerns the target T2, RSV F glycoprotein (NUF4). Briefly: SPR (BIAcore), mAb vs NUF4 (2:1).
Assay [5] deals with T3, recombinant C-terminally truncated RSV (A2 strain) F protein (RSV (A2 strain), UniProt P03420 26-524).
T3 construct: extracellular domain; also called truncated F protein; extracellular domain of the F protein from RSV A2
The assay is described as follows: SPR (BIAcore), IgG over immobilised F. Background: Surface plasmon resonance follows binding to a sensor surface in real time, without labels.

In assay [6] the target is T3, recombinant C-terminally truncated RSV …. The assay is described as follows: SPR (BIAcore), IgG over immobilised F. This is another data set of the same source.
Assay [7] concerns the target T2, RSV F glycoprotein (NUF4). Briefly: ITC, NUF4 titrated into antibody, 35 C.
Experimental: The binding thermodynamics of the antibodies were determined from ITC measurements using a Microcal, Inc. VP Titration Calorimeter. The VP titration calorimeter consists of a matched pair of sample and reference vessels (1.409 ml) enclosed in an adiabatic enclosure and a rotating stirrer-syringe for titrating ligand solutions into the sample vessel. The ITC measurements were performed at 25° C. and 35° C. The sample vessel contained the antibody in the phosphate buffer while the reference vessel contained just the buffer solution. The phosphate buffer solution was saline 67 mM PO₄ at pH 7.4 from HyClone, Inc. Five or ten μl aliquots of the 0.05 to 0.1 mM NUF4 solution were titrated 3 to 4 minutes apart into the antibody sample solution until the binding was saturated as evident by the lack of a heat exchange signal. […] This was attributed to a heat of dilution of the NUF4 titrant and was subtracted from the titrant heats obtained during the titration prior to analysis of the data.
A non-linear, least square minimization software program from Microcal, Inc., Origin 5.0, was used to fit the incremental heat of the ith titration (ΔQ (i)) of the total heat, Qₜ, to the total titrant concentration, Xₜ, according to the following equations (I),
Assay [8] has as its target T1, F protein of RSV (Long strain). Briefly: cell-based or functional assay. This is another data set of the same source.
The target of a further assay is RSV F protein (purified) (respiratory syncytial virus). The assay is described as follows: SPR (BIAcore), F protein immobilised.
Assay [9] concerns the target T3, recombinant C-terminally truncated RSV …. The assay is described as follows: SPR (BIAcore), Fab over immobilised F.
In the next assay the target is Bac-F (respiratory syncytial virus). The assay is described as follows: SPR (BIAcore), mAb vs Bac-F (1:1).
The target in assay [10] is T1, F protein of RSV (Long strain). The assay is described as follows: cell-based or functional assay. This is another data set of the same source.
Assay [11] has as its target T3, recombinant C-terminally truncated RSV …. The assay is described as follows: SPR (BIAcore), IgG over immobilised F. This is another data set of the same source.
Assay [12] has as its target T1, F protein of RSV (Long strain). Briefly: cell-based or functional assay. The source holds these as a separate data set.
The target in a further assay is T4, human FcRn (human).
T4 construct: also called recombinant human FcRn
T4 sequence (chain, as listed by the source limits assumed, chain 1 of 2): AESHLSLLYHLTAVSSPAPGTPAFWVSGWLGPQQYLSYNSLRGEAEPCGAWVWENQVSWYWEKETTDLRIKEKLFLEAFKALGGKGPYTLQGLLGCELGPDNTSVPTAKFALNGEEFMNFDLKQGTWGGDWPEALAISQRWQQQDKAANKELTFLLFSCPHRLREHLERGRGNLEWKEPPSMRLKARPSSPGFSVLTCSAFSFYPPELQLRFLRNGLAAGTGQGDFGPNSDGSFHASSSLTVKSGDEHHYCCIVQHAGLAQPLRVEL
T4 sequence (P61769 21-119 limits assumed, chain 2 of 2): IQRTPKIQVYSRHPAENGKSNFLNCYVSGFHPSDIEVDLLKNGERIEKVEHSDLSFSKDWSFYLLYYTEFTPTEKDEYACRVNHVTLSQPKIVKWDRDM
Briefly: SPR (BIAcore 3000), FcRn over immobilised IgG, pH 6.0, one-site fit.

In a further assay the target is T5, Cynomolgus Monkey FcRn (Cynomolgus Monkey, UniProt Q8SPV9 24-290; Q8SPW0 21-119).
T5 construct: also called Cynomolgus FcRn
Described as above.

Experimental for Cynomolgus Monkey FcRn: (§1) Human and Cynomolgus Monkey FcRn were buffer-exchanged against 50 mM Phosphate Buffered Saline (PBS) pH 6.0 or 7.4 containing 0.05% Tween 20. Dilutions were made in the same buffers. […] FcRn was also flowed over an uncoated cell and the sensorgrams from these blank runs subtracted from those obtained with IgG-coupled chips. Runs were analyzed using the software BIAevaluation 3.1 (Pharmacia). Dissociation constants (Kds) were determined by fitting the binding isotherms to a one-site binding model using GraphPad Prism (GraphPad Software, Inc., CA). Errors were estimated as the mean standard deviation for at least 2 independent determinations.
Experimental for human FcRn: as §1

B1: A4B4 IgG (antibody, V domains shown)
VH: QVTLRESGPALVKPTQTLTLTCTFSGFSLSTAGMSVGWIRQPPGKALEWLADIWWDDKKHYNPSLKDRLTISKDTSKNQVVLKVTNMDPADTATYYCARDMIFNFYFDVWGQGTTVTVSS
VL: DIQMTQSPSTLSASVGDRVTITCSASSRVGYMHWYQQKPGKAPKLLIYDTFFLDSGVPSRFSGSGSGTEFTLTISSLQPDDFATYYCFQGSGYPFTFGGGTKVEIKR
For orientation: Kd means the constant that tells how readily two partners part at equilibrium. Broadly, the koff is the first-order rate constant of dissociation. Usually kon stands for the rate constant with which the complex forms. For B1, in assay [1], the “Mean IC50 (Control)” value was 0.0154 µg/mL and the “Mean IC50 (Curve)” value came to 0.0171 µg/mL. The “Microneutralization IC50, IgG” value in [2] was 0.104 µg/ml and 0.069 nM. Besides, in [3], the Kd was determined as 0.57 nM, the “fold in parentheses (palivizumab = 1)” value is 15 fold, the dissociation rate constant (koff) stood at 0.000282 s⁻¹ and the association rate constant (kon) came out at 496000 M⁻¹ s⁻¹. Further, in assay [4], the Kd stood at 2 nM, the “fold in parentheses (palivizumab = 1)” value came out at 156 fold, the koff came to 0.000401 s⁻¹ and the kon is 203000 M⁻¹ s⁻¹. In assay [5], the “fold improvement in affinity over palivizumab” value worked out at 125 fold, the “fold improvement in koff over palivizumab” value was found to be 28 fold and the “fold improvement in kon over palivizumab” value was 4 fold. Also, in [6], the Kd was 0.027 nM, the koff came to 1.51e-05 s⁻¹ and the kon is 553000 M⁻¹ s⁻¹. In assay [7], the Ka came out at 2.69e+08 M⁻¹, the Kd is ~3.7 nM and the ΔHb was 22.2 kcal/mol.

B2: P11d4 Fab (Fab, V domains shown)
VH: B1 VH with A32P, D57G, F105W
VL: DIQMTQSPSTLSASVGDRVTITCSPSSRVGYMHWYQQKPGKAPKLLIYDTMRLASGVPSRFSGSGSGTEFTLTISSLQPDDFATYYCFQGSGYPFTFGGGTKVEIK
By IC50 is commonly meant the point on the concentration scale where inhibition reaches its midpoint. As for B2, in assay [8], the “IC50” value is > 20 nM. Moreover, in [1], the “Mean IC50 (Control)” value is > 1 µg/mL and the “Mean IC50 (Curve)” value was > 1 µg/mL. In the assay with RSV F protein (purified), the koff is 0.000717 s⁻¹; the association rate constant (kon) is 570000 M⁻¹ s⁻¹ and 572000 M⁻¹ s⁻¹. In addition, in assay [9], the Kd is 0.682 nM, the koff worked out at 0.000389 s⁻¹ and the kon was 570000 M⁻¹ s⁻¹.

B3: P11d4 IgG (antibody, V domains shown)
VH: B1 VH with A32P, D57G, F105W
VL: B1 VL with A25P, F51M, F52R, D54A
On to B3, for which, in [1], the “Mean IC50 (Control)” value came out at 0.0289 µg/mL and the “Mean IC50 (Curve)” value was 0.0217 µg/mL. Further, the “Microneutralization IC50, IgG” value in assay [2] is 0.0217 µg/ml and 0.14 nM. Besides, in assay [3], the Kd worked out at 0.85 nM, the “fold in parentheses (palivizumab = 1)” value worked out at 10 fold, the koff came out at 0.000766 s⁻¹ and the kon was 904000 M⁻¹ s⁻¹. In assay [4], the Kd was found to be 8.55 nM, the “fold in parentheses (palivizumab = 1)” value amounted to 36 fold, the dissociation rate constant (koff) amounted to 0.00313 s⁻¹ and the kon was 366000 M⁻¹ s⁻¹. Moreover, in assay [5], the “fold improvement in kon over palivizumab” value amounted to 4 fold. Moreover, in the assay with Bac-F, the Kd worked out at 0.62 nM and the “fold in parentheses (palivizumab = 1)” value worked out at 6 fold. Besides, in [6], the Kd was found to be 0.62 nM, the koff was determined as 0.000289 s⁻¹ and the kon was 466000 M⁻¹ s⁻¹.

B4: P12f2 Fab (Fab, V domains shown)
VH: B1 VH with A32P
VL: B2 VL with P25L, M51F, R52Y, A54S
For B4, 0.65 nM corresponded to half-maximal inhibition in assay [8] (IC50). For the same molecule, in [1], the “Mean IC50 (Control)” value came to 0.0326 µg/mL and the “Mean IC50 (Curve)” value came out at 0.0407 µg/mL. The “Microneutralization IC50, Fab” value in assay [2] was 0.0407 µg/ml and 0.81 nM. In the assay with RSV F protein (purified), this molecule showed a koff of 0.000282 s⁻¹ and a kon of 663000 M⁻¹ s⁻¹. Moreover, in assay [9], the Kd came out at 0.135 nM, the off-rate (koff) is 7.2e-05 s⁻¹ and the kon stood at 535000 M⁻¹ s⁻¹.

B5: A12a6 Fab (Fab, V domains shown)
VH: B1 VH with D57G, H60D
VL: B2 VL with P25A, M51F, R52K, A54S
Regarding B5, in assay [8], the “IC50” value is 0.62 nM. For the same molecule, in assay [1], the “Mean IC50 (Control)” value is 0.031 µg/mL and the “Mean IC50 (Curve)” value amounted to 0.0287 µg/mL. The “Microneutralization IC50, Fab” value in [2] was 0.0287 µg/ml and 0.57 nM. Also, in the assay with RSV F protein (purified), the off-rate constant (koff) is 0.00023 s⁻¹ and the kon came to 743000 M⁻¹ s⁻¹. Besides, in [9], the Kd was found to be 0.422 nM, the koff came out at 0.000219 s⁻¹ and the kon is 519000 M⁻¹ s⁻¹.

B6: A1e9 Fab (Fab, V domains shown)
VH: B1 VH with D57G, F105W
VL: B2 VL with P25L, M51F, R52K, A54S
notes: also called Ale9
Consider B6, for which 2.5 nM corresponded to half-maximal inhibition in assay [8] (IC50). In assay [1], the “Mean IC50 (Control)” value worked out at 0.125 µg/mL and the “Mean IC50 (Curve)” value came to 0.157 µg/mL. In addition, in assay [2], the “Microneutralization IC50, Fab” value was 0.157 µg/ml and 3.14 nM. In the assay with RSV F protein (purified), the koff was 0.000453 s⁻¹ and the on-rate (kon) stood at 790000 M⁻¹ s⁻¹. Moreover, in assay [9], the Kd was 0.216 nM, the koff is 0.000113 s⁻¹ and the kon was determined as 523000 M⁻¹ s⁻¹.

B7: A13a11 Fab (Fab, V domains shown)
VH: B1 VH with F105W
VL: B2 VL with M51Y, L53H, A54S
With B7, the “IC50” value in assay [8] amounted to 2.04 nM. Moreover, in assay [1], the “Mean IC50 (Control)” value was determined as 0.102 µg/mL and the “Mean IC50 (Curve)” value was determined as 0.12 µg/mL. The “Microneutralization IC50, Fab” value in assay [2] is 0.012 µg/ml and 2.4 nM. In the assay with RSV F protein (purified), this molecule displayed a koff of 0.00025 s⁻¹ and a kon of 735000 M⁻¹ s⁻¹. In assay [9], the Kd was 0.337 nM, the koff was 0.000229 s⁻¹ and the kon stood at 680000 M⁻¹ s⁻¹.

B8: AFFF(1) IgG (antibody, V domains shown)
VH: B1 VH with H60D, D67S, D100S, F103T
VL: B1 VL with R28S, F52K, D54A, G92F
B8: the “Microneutralization IC50, IgG” value in assay [10] was 0.306 µg/ml and 2.04 nM; in assay [2], 2.04 nM and 0.306 µg/ml. Further, the koff with RSV F protein (purified) is 0.000274 s⁻¹ and 0.000266 s⁻¹ and 0.000206 s⁻¹; in [11] it was ≤ 5e-06 s⁻¹; in assay [6], ≤ 5e-06 s⁻¹. Besides, the kon in the assay with RSV F protein (purified) was 108000 M⁻¹ s⁻¹ and 96000 M⁻¹ s⁻¹ and 124000 M⁻¹ s⁻¹; in assay [11], 127000 M⁻¹ s⁻¹; in [6] it was 127000 M⁻¹ s⁻¹. The Kd in assay [6] was ≤ 0.039 nM.

B9: A13c4 Fab (Fab, V domains shown)
VH: B1 VH with D57G, H60S
VL: B2 VL with P25L, R52Y, L53Q, A54S
On to B9, for which, in [8], the “IC50” value worked out at 0.52 nM. For the same molecule, in assay [1], the “Mean IC50 (Control)” value came to 0.0258 µg/mL and the “Mean IC50 (Curve)” value came to 0.0264 µg/mL. In addition, the “Microneutralization IC50, Fab” value in assay [2] is 0.0264 µg/ml and 0.53 nM. Further, in the assay with RSV F protein (purified), the dissociation rate constant (koff) worked out at 0.00028 s⁻¹; the kon is 781000 M⁻¹ s⁻¹ and 735000 M⁻¹ s⁻¹. Besides, in [9], the Kd was determined as 0.172 nM, the koff turned out to be 0.000112 s⁻¹ and the kon was determined as 650000 M⁻¹ s⁻¹.

B10: A4B4L1FR-S28R (MEDI-524) (antibody, human IgG1, kappa)
heavy: not shown
light: DIQMTQSPSTLSASVGDRVTITCSASSRVGYMHWYQQKPGKAPKLLIYDTSKLASGVPSRFSGSGSGTEFTLTISSLQPDDFATYYCFQGSGYPFTFGGGTKVEIKRTVAAPSVFIFPPSDEQLKSGTASVVCLLNNFYPREAKVQWKVDNALQSGNSQESVTEQDSKDSTYSLSSTLTLSKADYEKHKVYACEVTHQGLSSPVTKSFNRGEC
Turning to B10, the “RSV microneutralization, average IC50” value in [12] is 0.018 µg/mL. The Kd with human FcRn stood at 2250 nM; with Cynomolgus Monkey FcRn it was 1200 nM.
